Measured values as given in patent US20230159589A1 (published 2023).
Square brackets hold non-standard residues; d marks the D form. Ends that are not written are not given here. F2Pmp = N[C@@H](Cc1ccc(C(F)(F)P(=O)(O)O)cc1)C(=O)O

T1: STEP32 WT (catalytic domain of protein tyrosine phosphatase STEP/PTPN5, aa 282-563, N-terminal 6xHis tag) (UniProt P54829 282-563)
T1 construct: Expressed from pLIC-SGC1-PTPN5 WT (Addgene 39166); also called catalytic active STEP32
T1 sequence: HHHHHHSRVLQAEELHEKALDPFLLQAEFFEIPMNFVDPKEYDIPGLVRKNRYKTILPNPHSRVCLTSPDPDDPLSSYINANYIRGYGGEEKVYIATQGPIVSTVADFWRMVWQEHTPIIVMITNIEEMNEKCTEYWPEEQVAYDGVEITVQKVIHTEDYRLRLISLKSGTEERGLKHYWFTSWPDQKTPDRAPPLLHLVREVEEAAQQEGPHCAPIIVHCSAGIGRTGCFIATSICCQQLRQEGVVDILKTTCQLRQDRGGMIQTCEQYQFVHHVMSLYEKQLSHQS


Each molecule was assayed against T1, STEP32 WT (catalytic domain of protein …) (assay: SPR (Biacore 3000), peptide immobilized, STEP32 WT analyte (per FIG. 7 legend), 1:1 Langmuir fit).
Procedure: For kinetic interaction studies by SPR, each of the short phosphopeptides was covalently immobilized on a flow cell of a carboxymethylated dextran chip. […] The amino group of the spacer was used to perform the covalent binding of the ligands to the sensor.
(§1) For each kinetic experiment, at least five different protein concentrations ranging between 100 nM and 500 μM were used. […] The association and dissociation time was set to 5 min. After each interaction test, 2-4 cycles of regeneration were performed by injecting 1M NaCl in HBS-EP buffer (0.01 M HEPES pH 7.4, 0.15 M NaCl, 3 mM EDTA, 0.005% v/v Surfactant P20) for 2 min at a flow rate of 20 μl/min. HBS-EP buffer was used as a running buffer. All measurements were carried out at 25° C. The data obtained was processed with BIAevaluation 3.1 software using 1:1 Langmuir fitting model with drifting baseline (using “Kinetics Simultaneous Kd/Ka” module). Nonspecific signals were removed by subtraction of signals from the reference area.

Molecule	Ka	Kd	koff	kon
ATYKEGYNV[F2Pmp]G (also called p3Y-F2Pmp) [3Y-F2Pmp (ATYKEGYNV{F2Pmp}G)]	3.74e+06 M⁻¹	268 nM	0.00656 s⁻¹	24500 M⁻¹ s⁻¹
EGYNV[F2Pmp] (also called 3Ysh-F2Pmp) [3Ysh-3-F2Pmp (EGYNV{F2Pmp})]	4.12e+06 M⁻¹	242 nM	0.00483 s⁻¹	19900 M⁻¹ s⁻¹

Each molecule was assayed against STEP32 C/S (catalytically inactive substrate-trapping mutant of the catalytic domain of protein tyrosine phosphatase STEP/PTPN5, aa 282-563, C496S, N-terminal 6xHis tag) (Homo sapiens (Human)) (UniProt P54829) (assay: SPR, peptide immobilized, STEP32 C/S analyte).

Molecule	Kd
p-fin4 (EGYNVpYE) (peptide)	90 nM

Each molecule was assayed against STEP32 C/S (catalytically inactive substrate-trapping mutant of the catalytic domain of protein tyrosine phosphatase STEP/PTPN5, aa 282-563, C496S, N-terminal 6xHis tag) (Homo sapiens (Human)) (UniProt P54829) (assay: SPR (Biacore 3000), peptide immobilized, STEP32 C/S analyte, 1:1 Langmuir fit).

Molecule	Ka	Kd	koff	kon
p3Ysh-3 (PEG2-EGYNVpY) (peptide)	1.88e+07 M⁻¹	53.1 nM	0.00176 s⁻¹	33100 M⁻¹ s⁻¹
p-fin4 (EGYNVpYE) (peptide)	1.13e+07 M⁻¹	88.4 nM	0.00692 s⁻¹	78200 M⁻¹ s⁻¹

More lines, now with the values ahead:

Ka	Kd	koff	kon	Molecule
38400 M⁻¹	26000 nM	0.00252 s⁻¹		p3Ysh-1 (PEG2-NVpYG) (peptide)
253000 M⁻¹	3960 nM	0.179 s⁻¹	45200 M⁻¹ s⁻¹	p3Ysh-2 (PEG2-YNVpYG) (peptide)
163000 M⁻¹	6130 nM	0.11 s⁻¹	17900 M⁻¹ s⁻¹	p3Ysh-6 (PEG2-FGYNVpYG) (peptide)

What follows are molecules tested against STEP32 C/S (catalytically inactive substrate-trapping mutant of the catalytic domain of protein tyrosine phosphatase STEP/PTPN5, aa 282-563, C496S, N-terminal 6xHis tag) (Homo sapiens (Human)) (UniProt P54829) (assay: fluorescence polarization competition; reference EGYNVpY hexapeptide).

Molecule	fold improvement of the inhibition constant over the original hexapeptide
p-fin4 (EGYNVpYE) (peptide)	2 fold

The molecules below were run against STEP32 C/S (catalytically inactive substrate-trapping mutant of the catalytic domain of protein tyrosine phosphatase STEP/PTPN5, aa 282-563, C496S, N-terminal 6xHis tag) (Homo sapiens (Human)) (UniProt P54829) (assay: ligand efficiency derived from the binding data).

Molecule	LE (ligand efficiency)
p3Ysh-3 (PEG2-EGYNVpY) (peptide)	0.64

The molecules below were run against STEP32 C/S (catalytically inactive substrate-trapping mutant of the catalytic domain of protein tyrosine phosphatase STEP/PTPN5, aa 282-563, C496S, N-terminal 6xHis tag) (Homo sapiens (Human)) (UniProt P54829) (assay: SPR (value taken from Table S3)).

Molecule	Kd
p3Ysh-1 (PEG2-NVpYG) (peptide)	26000 nM
p3Ysh-2 (PEG2-YNVpYG) (peptide)	3960 nM
p3Ysh-3 (PEG2-EGYNVpY) (peptide)	60 nM
p3Ysh-6 (PEG2-FGYNVpYG) (peptide)	6130 nM

These molecules were tested against T1, STEP32 WT (catalytic domain of protein …) (assay: SPR, peptide immobilized, STEP32 WT analyte (per FIG. 7 legend)).
Procedure: as §1

Molecule	Kd
ATYKEGYNV[F2Pmp]G (also called p3Y-F2Pmp) [3Y-F2Pmp (ATYKEGYNV{F2Pmp}G)]	270 nM
EGYNV[F2Pmp] (also called 3Ysh-F2Pmp) [3Ysh-3-F2Pmp (EGYNV{F2Pmp})]	240 nM

What follows are molecules tested against STEP32 C/S (catalytically inactive substrate-trapping mutant of the catalytic domain of protein tyrosine phosphatase STEP/PTPN5, aa 282-563, C496S, N-terminal 6xHis tag) (Homo sapiens (Human)) (UniProt P54829) (assay: fluorescence polarization competition; column headed Kd, the text speaks of IC50 values in Table 3).

Molecule	IC50
p3Ysh-3 (PEG2-EGYNVpY) (peptide)	2600 nM
p-fin1 (GYNVpY) (peptide)	8010 nM
p-fin3 (NGYNVpY) (peptide)	8840 nM
p-fin4 (EGYNVpYE) (peptide)	1860 nM

Further lines, results first:

IC50	Molecule
7150 nM	p-fin2 (DGYNVpY) (peptide)
3360 nM	p-fin5 (EGYNVpYGD) (peptide)

Each molecule was assayed against STEP32 C/S (catalytically inactive substrate-trapping mutant of the catalytic domain of protein tyrosine phosphatase STEP/PTPN5, aa 282-563, C496S, N-terminal 6xHis tag) (Homo sapiens (Human)) (UniProt P54829) (assay: fluorescence polarization competition; displaces TAM-3Y-F2Pmp from STEP32 C/S).

Molecule	Ki
p3Ysh-3 (PEG2-EGYNVpY) (peptide)	690 nM
p-fin1 (GYNVpY) (peptide)	1900 nM
p-fin3 (NGYNVpY) (peptide)	2160 nM
p-fin4 (EGYNVpYE) (peptide)	360 nM

Now from value to molecule:

Ki	Molecule
1850 nM	p-fin2 (DGYNVpY) (peptide)
760 nM	p-fin5 (EGYNVpYGD) (peptide)

These molecules were tested against STEP32 C/S (catalytically inactive substrate-trapping mutant of the catalytic domain of protein tyrosine phosphatase STEP/PTPN5, aa 282-563, C496S, N-terminal 6xHis tag) (Homo sapiens (Human)) (UniProt P54829) (assay: fluorescence polarization competition; displaces TAMRA-3Y-F2Pmp from STEP32 C/S).

Molecule	Ki
p3Ysh-3 (PEG2-EGYNVpY) (peptide)	1640 nM
p3Ysh-5 (PEG2-YVpYG) (peptide)	5340 nM
p3Ysh-7 (PEG2-FSpYG) (peptide)	4570 nM

Further lines, results first:

Ki	Molecule
4990 nM	p3Ysh-1 (PEG2-NVpYG) (peptide)
13100 nM	p3Ysh-2 (PEG2-YNVpYG) (peptide)
13700 nM	p3Ysh-4 (PEG2-NSpYG) (peptide)
6960 nM	p3Ysh-6 (PEG2-FGYNVpYG) (peptide)

These molecules were tested against STEP32 C/S (catalytically inactive substrate-trapping mutant of the catalytic domain of protein tyrosine phosphatase STEP/PTPN5, aa 282-563, C496S, N-terminal 6xHis tag) (Homo sapiens (Human)) (UniProt P54829) (assay: SPR; reference p3Y).

Molecule	fold higher Kd than p3Y	fold lower Kd than p3Y	fold smaller Kd than p3Y
p3Ysh-2 (PEG2-YNVpYG) (peptide)	17 fold		
p3Ysh-3 (PEG2-EGYNVpY) (peptide)		4 fold	> 2 fold
p3Ysh-6 (PEG2-FGYNVpYG) (peptide)	6.4 fold		
